Assay results published in patent US20260258141A1 (BIOCYTOGEN PHARMACEUTICALS BEIJING, published 2026).

Experiments:
[1] = biological target: T1, His-tagged human IGF1R protein (ACRO Biosystems Inc., Cat #: IGR-H5229) (human, UniProt P08069 31-932); assay: SPR (Biacore 8K) on captured hIGF1R-His, binder injected second (Analyte 2); competitor injected first (Analyte 1): 12D1
T1 construct: Bought protein; also called hIGF1R-His; not shown: His tag
Description: Epitope binding assays were performed using Biacore™ 8K biosensor to determine whether two anti-IGF1R antibodies target the same or overlapping epitopes. 1×HBS-EP+ buffer (10 mM 4-(2-hydroxyethyl)-1-piperazineethanesulfonic acid (HEPES), 150 mM NaCl, 3 mM ethylenediaminetetraacetic acid (EDTA) and 0.05% P20, pH7.4) diluted from HBS-EP+buffer (10×) was used as the running buffer throughout the experiment. About 50 RU of hIGF1R-His was captured at a flow rate of 10 μL/min, and 200 nM of the tested antibody (Analyte 1) was injected at a flow rate of 30 uL/min to bind the ligand. Another comparison antibody (Analyte 2) was injected under the same conditions to determine whether the binding of different antibodies interfered with each other. The binding time was 180 s for each antibody.
The binding value of each antibody was obtained using Biacore Insight Evaluation (Version: 2.0.15.12933). To quantify the interference of one antibody binding to another, a binding ratio was calculated to compare each pair of antibodies. The binding ratio is defined as the binding value of the second antibody (Analyte 2) divided by the binding value of the first antibody (Analyte 1). The threshold to determine the block or non-block is 0.3.

[2] = biological target: T1, His-tagged human IGF1R protein (ACRO …); assay: blocking ELISA on coated hIGF1R-His; blocked ligand: biotinylated human IGF-I
Description: (§1) Blocking assays were performed to determine whether the anti-IGF1R antibodies can block the binding between IGF1R and its ligand IGF-1 and IGF-2. Specifically, the microwell plates were coated with 100 μl/well of 5 μg/mL hIGF1R-His in pH 9.6 carbonate buffer, overnight at 4° C. Plates were blocked with at 200 μl/well of 1% bovine serum albumin and incubated at 37° C. for 2 hours. Serially diluted anti-IGF1R antibodies (0.005-10 μg/mL in 3-fold serial dilution plus buffer blank) were added to the plates at 100 μL/well. After a 1.5-hour incubation, Biotinylated Human IGF-I Protein (Acro Biosystems, Cat #: IG1-H82F7) or Biotinylated Human IGF-I Protein was replaced with Biotinylated Human IGF-II Protein (Acro Biosystems, Cat #: IG2-H82Q6) were added to the plates at 100 μL/well. After a 1.5-hour incubation at 37° C., HRP Streptavidin (Biolegend, Cat #: 405210) at 1:3000 dilution was added to the plates at 100 μL/well and incubated for 1 hour. Plates were washed 5 times and 100 μL of TMB was added to each well, and incubated for 10 minutes. 100 uL of 1M Phosphoric Acid was then added to each well and ELISA plates were read at 450/570 nm wavelength. A fitting curve was obtained using Log (antibody concentration (M)) as the X-axis and […] as the Y-axis.

[3] = biological target: T2, human insulin receptor INSR on cells (human, UniProt P06213 28-1382); assay: flow cytometry on CHO-S-hINSR cells
T2 construct: Expressed on CHO-S cells; also called hINSR; CHO-S-hINSR cells
T2 sequence (P06213 other isoform, or with tags, fused parts or gaps limits assumed): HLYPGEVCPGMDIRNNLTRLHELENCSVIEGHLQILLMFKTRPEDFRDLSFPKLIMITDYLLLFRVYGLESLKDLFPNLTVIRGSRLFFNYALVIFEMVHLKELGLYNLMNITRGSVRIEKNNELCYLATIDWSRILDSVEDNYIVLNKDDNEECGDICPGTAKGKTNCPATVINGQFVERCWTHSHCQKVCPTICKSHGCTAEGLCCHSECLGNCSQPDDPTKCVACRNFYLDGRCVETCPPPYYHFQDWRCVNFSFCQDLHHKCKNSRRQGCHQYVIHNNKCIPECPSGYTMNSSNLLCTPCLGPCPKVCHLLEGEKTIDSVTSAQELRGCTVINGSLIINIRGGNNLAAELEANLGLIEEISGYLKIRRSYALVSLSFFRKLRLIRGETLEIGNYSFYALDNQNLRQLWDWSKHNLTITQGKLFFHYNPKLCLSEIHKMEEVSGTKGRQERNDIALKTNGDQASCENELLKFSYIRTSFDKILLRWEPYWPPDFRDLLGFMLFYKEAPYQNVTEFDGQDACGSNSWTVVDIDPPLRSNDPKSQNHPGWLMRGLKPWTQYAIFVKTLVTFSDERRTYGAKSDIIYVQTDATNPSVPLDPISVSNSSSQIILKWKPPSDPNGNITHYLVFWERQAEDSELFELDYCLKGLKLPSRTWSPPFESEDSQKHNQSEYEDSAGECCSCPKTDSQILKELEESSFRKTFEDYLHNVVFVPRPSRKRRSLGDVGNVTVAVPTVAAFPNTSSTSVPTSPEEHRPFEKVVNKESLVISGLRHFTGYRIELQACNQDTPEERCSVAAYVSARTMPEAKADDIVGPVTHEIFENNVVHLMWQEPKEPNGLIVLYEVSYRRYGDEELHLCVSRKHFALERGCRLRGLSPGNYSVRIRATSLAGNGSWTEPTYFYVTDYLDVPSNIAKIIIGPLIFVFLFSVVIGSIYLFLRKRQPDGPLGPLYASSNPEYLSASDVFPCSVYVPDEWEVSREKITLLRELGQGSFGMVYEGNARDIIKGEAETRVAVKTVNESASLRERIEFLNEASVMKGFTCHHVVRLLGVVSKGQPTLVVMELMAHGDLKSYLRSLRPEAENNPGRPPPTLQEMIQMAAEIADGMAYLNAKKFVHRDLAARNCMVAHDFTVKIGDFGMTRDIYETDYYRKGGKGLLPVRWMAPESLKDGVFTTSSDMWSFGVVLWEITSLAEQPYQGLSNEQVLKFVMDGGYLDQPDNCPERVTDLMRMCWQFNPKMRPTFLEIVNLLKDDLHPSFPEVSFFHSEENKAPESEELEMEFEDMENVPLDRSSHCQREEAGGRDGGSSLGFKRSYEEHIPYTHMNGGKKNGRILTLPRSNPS
Description: (§2) INSR (insulin receptor) and IGF1R are both members of the superfamily of receptor tyrosine kinases (RTKs). The binding activity of anti-IGF1R antibodies to human IGF1R, human INSR and monkey IGF1R was verified by flow cytometry. Briefly, CHO-S-hIGF1R cells (expressing human IGF1R (SEQ ID NO: 45), CHO-S-fasIGF1R cells (expressing cynomolgus monkey IGF1R (SEQ ID NO: 46) and CHO-S-hINSR (expressing SEQ ID NO: 47) were plated in a 96-well plate at a density of 2×10⁵ cells/well respectively. Purified anti-IGF1R antibody with a concentration of 20 μg/mL was added to each well and was incubated at 4° C. for 30 minutes. Then, after one wash with PBS, the cells were incubated with the secondary antibody Alexa Fluor® 647 anti-human IgG Fcγ (Jackson ImmunoResearch Laboratories, Inc., Cat #: 109-606-170) at 4° C. for 15 minutes before flow cytometry analysis. Human IgG1 was used as ISO control.

[4] = biological target: T2, human insulin receptor INSR on cells; assay: flow cytometry on CHO-S-hINSR cells, antibody 20 µg/mL
Description: as §2

[5] = biological target: T1, His-tagged human IGF1R protein (ACRO …); assay: blocking ELISA on coated hIGF1R-His; blocked ligand: biotinylated human IGF-II
Description: as §1

T1 sequence (P08069 31-932): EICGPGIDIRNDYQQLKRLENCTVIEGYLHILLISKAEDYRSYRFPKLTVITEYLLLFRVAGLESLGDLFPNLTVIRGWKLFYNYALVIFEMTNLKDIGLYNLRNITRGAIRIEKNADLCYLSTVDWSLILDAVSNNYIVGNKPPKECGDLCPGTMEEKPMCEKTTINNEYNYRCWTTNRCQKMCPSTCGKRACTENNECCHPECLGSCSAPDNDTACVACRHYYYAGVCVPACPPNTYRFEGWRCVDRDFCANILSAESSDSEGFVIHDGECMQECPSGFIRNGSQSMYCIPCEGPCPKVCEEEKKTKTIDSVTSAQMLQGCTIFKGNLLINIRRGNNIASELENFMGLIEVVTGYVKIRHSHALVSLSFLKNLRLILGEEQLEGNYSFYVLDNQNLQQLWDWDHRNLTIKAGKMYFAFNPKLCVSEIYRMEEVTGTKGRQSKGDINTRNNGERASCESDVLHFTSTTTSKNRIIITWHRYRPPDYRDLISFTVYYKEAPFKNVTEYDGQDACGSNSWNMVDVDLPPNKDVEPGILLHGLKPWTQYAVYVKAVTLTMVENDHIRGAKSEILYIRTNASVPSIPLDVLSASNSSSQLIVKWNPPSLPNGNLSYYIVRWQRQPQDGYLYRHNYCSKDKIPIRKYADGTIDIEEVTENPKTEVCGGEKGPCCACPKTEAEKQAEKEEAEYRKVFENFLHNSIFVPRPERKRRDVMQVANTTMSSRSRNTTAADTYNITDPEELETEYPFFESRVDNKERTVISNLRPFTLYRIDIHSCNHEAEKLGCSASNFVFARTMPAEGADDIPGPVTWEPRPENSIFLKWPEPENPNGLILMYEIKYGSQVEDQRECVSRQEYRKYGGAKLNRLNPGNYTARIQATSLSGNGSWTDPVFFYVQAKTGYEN

Binder	binding ratio (Analyte 2 / Analyte 1) [1]	IC50 [2]	Max inhibition (%) (10 µg/mL) [2]	binding result [3]	Percentage of positive cells [4]	IC50 [5]	Max inhibition (%) (10 µg/mL) [5]
anti-IGF1R antibody 12A4 (antibody, V domains shown) VH: EVQLVQSGGGEIRPGGSLRLSCAASGFTFADYGMSWVRQAPGEGLEWVSEIDWTGGSKLYADSVKGRFTISRDNAKNSLFLQMNSLRAEDTALYYCVRDRGAVSPKYYYYGMDVWGQGTTVTVSS VL: EIVLTQSPSSLSASVGDRVTITCRASQGIRNDLGWYQQKPGKAPKRLIYAASRLQSGVPSRFSGSGSGTDFTLTISSLQPEDFATYYCLQHNSYPYTFGQGTKLEIK	-0.02	2 nM	50%	no binding (tested: 20 µg/mL)	0.4%	1.9 nM	81%
anti-IGF1R antibody 12D1 (antibody, human IgG1, V domains shown) VH: QVQLVESGGGVVRPGGSLRLSCAASGFTFDDYGMSWVRQVPGKGLEWVSGINWNGGSTDYADSVKGRFTISREKAKNSLYLQMNSLRAEDTALYYCVRDRGAVTRRYYYYGMDVWGQGTTVTVSS VL: DIQMTQSPSSLSASVGDRVTITCRASQDIRNDLGWYQLKPGKAPKRLIYAASRLQSGVPSRFSGSGSGTEFTLTISSLQPEDFATYYCLQHNSYPYTFGQGTKLEIK	-0.01	2.2 nM	55%	no binding (tested: 20 µg/mL)	0.5%	1.6 nM	88%
anti-IGF1R antibody 10D1 (antibody, human IgG1, V domains shown) VH: QVQLQQSGGGVVRPGGSLRLSCAASGFTFADYGMSWVRQVPGKGLEWVSGINWNGGSTDYADSVKGRFTISRDNAKHSLYLQMNSLRAEDTAFYYCARDRGAVSRRYYYYGMDVWGLGTTVTVSS VL: AIQLTQSPSSLSASVGDRVTITCRASQDIRNDLGWYQLKPGKAPKRLIYAASRLQSGVPSGFSGSGSGTEFTLTISSLQPEDFATYYCLQHNSYPYTFGQGTKLEIK	0.02	1.3 nM	47%	no binding (tested: 20 µg/mL)	1.5%	1.7 nM	76%
anti-IGF1R antibody 10G1 (antibody, human IgG1, V domains shown) VH: QVQLVESGGGLVKPGGSLRLSCAASEFTFSDYYMSWIRQSPGKGLEWVSYISNSGSFTNYADSVKGRFTISRDNAKNSLYLQMNSLRAEDSAIYYCVRDQAPVTSKYYYYGMDVWGQGTTVTVSS VL: EIVLTQSPSSLSASVGDRVTITCRASQGIRNDFAWYQQKPGKAPKRLIYAASRLQRGVPSRFSGSGSGTEFTLTISSLQPEDFATYYCLQHNSYPYTFGQGTKLEIK	-0.02	1.6 nM	43%	no binding (tested: 20 µg/mL)	0.7%	5.2 nM	73%
